Assay [1] has as its target T1, mouse IL-2Rβ (mouse) (UniProt P16297).
T1 sequence (looked up): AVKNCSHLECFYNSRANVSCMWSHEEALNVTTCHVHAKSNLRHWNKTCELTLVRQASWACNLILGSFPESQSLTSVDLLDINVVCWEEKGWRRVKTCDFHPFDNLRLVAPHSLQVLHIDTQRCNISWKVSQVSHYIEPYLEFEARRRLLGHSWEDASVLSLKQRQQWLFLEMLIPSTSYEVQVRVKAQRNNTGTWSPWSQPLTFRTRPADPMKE
The assay is described as follows: P.E. binding ELISA on coated protein.

Assay [2] has as its target T1, mouse IL-2Rβ (mouse). As to the kind of experiment: P.E. ELISA, coated protein.

Positions count from the first letter of the chain named.

B1: FJ1427 P035MP02F12 (VHH)
VHH: QLQLVESGGGLVQTGTSLRLSCAASGHTSRINAMGWFRQFPGKEREFVAAISRNGGSTVYVDSVKGRFTISRDNAKSTVYLQMNSLKPEDTAVYYCTATDAVGWTTRWMTADFGFWGQGTQVTVSS
In turn, B1 registered a P.E. binding ELISA OD in assay [1] of 0.048 OD450 nm.

B2: FJ1427 P035MP03B01 (VHH)
VHH: QVQLVESGGGLVQAGGSLRLSCAASGFTFSNYAMSWVRQAPGKGLEWVSSITGFGRGTDYADSVKGRFTISRDNAKNTLYLQMNSLKPEDTAVYYCARYSSSTYYPPTPARGTDYRGQGTQVTVSS
Turning to B2, in assay [1], the P.E. binding ELISA OD came to 0.05 OD450 nm.

B3: FJ1427 P035MP03D01 (VHH)
VHH: B2 VHH with A14P, R19G, S30D, F54A, D59H, R98K, Q118P
B3 gave a P.E. binding ELISA OD in assay [1] of 0.048 OD450 nm.

B4: FJ1427_P035MP02B03 (VHH)
VHH: QVQLVESGGGLVQTGGSLRLSCAASGSRFVSDFMGWYRQVPGKQRELVADMADGGSARYGDSVKGRFTILRDSGNSTAYLQMSSLKPEDTGVYYCKAGLWIAGRHFDYWGQGTQVTVSS
In turn, B4 displayed a P.E. binding ELISA OD in assay [2] of 0.048 OD450 nm.

B5: FJ1427 P035MP02B12 (VHH)
VHH: QVQLVESGGGLVQAGGSLRLSCAASGRADSNAIMAWFRQAPGKEREFIVAVTYSGMPTYQDDSVQGRFTASRDNAKNTVYLQMNSLKPEDTAVYYCAARMYSASTYYGDYDYWGQGTQVTVSS
In turn, B5 came in with a P.E. binding ELISA OD in assay [1] of 0.048 OD450 nm.

B6: FJ1427_P035MP02H11 (VHH)
VHH: EVQLVESGGGLVQAGGSLRLSCAASGRTFSTTEMGWFRQAPGKEREFVAAITWTGRGTMYAESVEGRFTISRENAKNMVYLQMNSLKPEDTAIYYCAAARRGRAAVRSEGGYDFWGQGTQVAVSS
As for B6, the P.E. binding ELISA OD in assay [1] amounted to 0.049 OD450 nm.

B7: FJ1427_P035MP02D03 (VHH)
VHH: QVQLVESGGGLVQAGGPLRLSCAASGGTFSSYAMGWFRQAPGKEREFVAATTRGGGRTMYAVSTEGRFTCSRDNAKNTVYLLMNSLKPEDTAVYYCAAMTSYYSGTYYPDSSDFDIWGQGTQVTVSS
B7 yielded a P.E. binding ELISA OD in assay [2] of 0.048 OD450 nm.

B8: FJ1427_P035MP02F11 (VHH)
VHH: EVQLVESGGGLVQAGGSLRLSCAASGRDFSSYAMGWFRQAPGKEREFVVAITWTKRSTDFPDSVKGRFTISRDNAKNTVYLDMNSLKPEDTAVYYCASARGLPVTPLGDIIYWGEGTLVTVSS
Take B8: the P.E. binding ELISA OD in assay [1] was 0.047 OD450 nm.

B9: FJ1427_P035MP02G11 (VHH)
VHH: B8 VHH with E1Q, V2L
B9 displayed a P.E. binding ELISA OD in assay [1] of 0.049 OD450 nm.

B10: FJ1427_P035MP02D12 (VHH)
VHH: QVQLVESGGGLVQAGGSLTLSCAASGGAFSSDAKAWFRQAPGKEREFVAAITWAGRGTDYADSVKGRFTITRDNAKATVHLQMNSLKPEDTAVYYCALNPRGVIGPAFRNSNHYTYWGQGTQVTVSS
With B10, in assay [1], the P.E. binding ELISA OD came to 0.046 OD450 nm.

B11: FJ1427_P035MP02E12 (VHH)
VHH: QVQLQESGGGLVQAGGSMRLSCAASGRTFSNYVIAWFRQAPGKEREFVGAITQTGRGTFYASSVEGRFTLSRLNDQSTVYLQMNSLNPEDTGVYYCSAPRSGRAGTRNQMDYEYWGQGTQVTVSS
B11: the P.E. binding ELISA OD in assay [1] was found to be 0.048 OD450 nm.

B12: FJ1427_P035MP02C12 (VHH)
VHH: EVQLVESGGGSVQAGGSLRLSCAASGRTFSDYTMGWFRQAPGKEREFVVAITGTGHTTDMPDSVEGRFTISRDNAKNTIYLDMKNLKPGDTAVYYCASARGLPVTPLGDIIYWGEGTLVTVSS
On to B12, for which, in assay [1], the P.E. binding ELISA OD stood at 0.047 OD450 nm.

B13: FJ1427 P035MP02A12 (VHH)
VHH: QVQLQESGGGLVQAGGSLRLSCAVSGRSFRNYVMGWFRQAPGREREIVAGITQFTSTTYYDDSVKGRFTISRDNAKNTVYLQMNSLKPEDTALYYCAADRSIKMTADWAYWGQGTQVTVSS
In assay [1], B13 registered a P.E. binding ELISA OD of 0.047 OD450 nm.

(Values after patent publication US20240409645A1.)
